{
  "source": "patent US20180036364A1",
  "about": "“METHODS OF TREATING CANCER WITH A PSMA LIGAND-TUBULYSIN COMPOUND” (priority 2015, published 2018)",
  "format_in_all_cases": "in vivo, human",
  "key": {"[1]": {"assay": "Phase 1 dose-escalation study: pharmacokinetics", "conditions": "mCRPC patients, IV bolus", "method": "(§1) This is a Phase 1, multicenter, open-label, non-randomized, dose-escalation oncology study in which EC1169 was dosed three times weekly (TIW), on Weeks 1 and 2 of a 3-week schedule or once weekly dosing (QW) on Weeks 1 and 2 of a 3-week schedule to assess toxicity, safety and preliminary efficacy results in patients with metastatic, castration-resistant prostate cancer (mCRPC) who have progressed on abiraterone and/or enzalutamide, and have been previously treated with a taxane except in cases of contraindication (e.g. poor performance status, age or personal choice). Patients were also dosed with 99mTc-EC0652 and underwent a SPECT/CT scan (or SPECT scan if no SPECT/CT is available) to evaluate EC0652 as an imaging agent to identify PSMA expression.\n(§2) II. PSMA-Tubulysin Compound I Administration: PSMA ligand-tubulysin compound I was administered at least 4 days after PSMA Imaging Agent Ma was administered, as an intravenous bolus injection, TIW on Weeks 1 and 2 (i.e., on Days 1, 3, 5, 8, 10, 12 of a 3-week cycle) or once weekly on Weeks 1 and 2 of a 3-week schedule."}, "[2]": {"assay": "Phase 1 dose-escalation study: toxicity and safety", "method": "as §1\nPrior dose escalation methodology for both schedules was based the continuous reassessment method (CRM), in which 1 patient is assigned to 1 dose level. Subsequent patients were to be enrolled upon the first observation of DLT, at which time enrollment to that dose level would be expanded to a maximum of 6 patients. An alternative dose escalation methodology for both schedules was based upon the standard “3+3” approach, in which a minimum of 3 patients is enrolled to a given dose level. Following the first observation of a DLT, the dose level is then expanded to a maximum of 6 patients.\nPatients received an injection of 0.1 mg of PSMA Imaging Agent IIa labeled with 20-25 mCi of technetium-^99m (PSMA Imaging Agent Ma). Patients were subjected to SPECT/CT imaging of the region(s) known to contain target lesion(s) approximately 3-4 hours after injection of PSMA Imaging Agent Ma (^99mTc-EC0652). For sites where SPECT/CT imaging is not available, SPECT imaging alone was carried out.\nas §2\nDLTs will be based on events occurring in Part A during the first cycle of therapy and the adverse events must be drug related (i.e. definitely, probably or possibly): • ≧Grade 4 hematological toxicity. • Grade 3 neutropenia with fever>38.5° C. and/or infection requiring antibiotic or antifungal treatment. • Grade 3 neutropenia persisting for >5 days. • Grade 3 thrombocytopenia with clinically significant hemorrhage requiring platelet transfusion. • ≧Grade 3 non-hematological toxicity. Grade 3 laboratory abnormalities (e.g., K or Mg) that persist for less than 48 hours are not considered DLTs. • Grade 3 nausea, vomiting lasting more than 72 hours. • A delay of >2 weeks in the scheduled administration of Compound I due to drug-related toxicity.\n• Schedule #1: TIW Dosing Schedule: Inability to administer at least 4 of the 6 scheduled doses of PSMA ligand-tubulysin compound I in a cycle due to drug-related toxicity. • Schedule #2: Once Weekly Dosing Schedule: Inability to administer both scheduled doses of PSMA ligand-tubulysin compound I in a cycle due to drug-related toxicity.\nPSMA imaging conjugate IIIa and PSMA ligand-tubulysin compound I was administered via IV bolus injection."}, "[3]": {"tested_on": "metastatic, castration-resistant prostate cancer (mCRPC)", "assay": "Phase 1 dose-escalation study: preliminary efficacy", "conditions": "21 mCRPC patients", "source_text": "In one aspect, a clinical benefit of the patient to treatment with PSMA ligand-tubulysin compound I can be characterized utilizing Response Evaluation Criteria in Solid Tumors (RECIST) criteria. Illustratively, the criteria have been adapted from the original WHO Handbook (3), taking into account the measurement of the longest diameter for all target lesions: complete response, (CR)—the disappearance of all target lesions; partial response (PR)—at least a 30% decrease in the sum of the longest diameter of target lesions, taking as reference the baseline sum longest diameter; stable disease (SD)—neither sufficient shrinkage to qualify for partial response nor sufficient increase to qualify for progressive disease, taking as reference the smallest sum longest diameter since the treatment started; progressive disease (PD)—at least a 20% increase in the sum of the longest diameter of target lesions, taking as reference the smallest sum longest diameter recorded since the treatment started or the appearance of one or more new lesions. In another aspect overall disease response rate (ORR) is a clinical benefit and is calculated as the percent of patients who achieve a best response of CR or PR. Overall disease control rate (DCR) can be another clinical benefit and is calculated as the percent of patients who achieve a best response of CR, PR, or SD. […]"}, "[4]": {"conditions": "21 mCRPC patients, both schedules"}},
  "data": [
    {"smiles": "CCCC(=O)OCN(C(=O)[C@@H](NC(=O)[C@H]1CCCCN1C)C(C)CC)[C@H](C[C@@H](OC(C)=O)c1nc(C(=O)N[C@@H](Cc2ccc(O)cc2)C[C@H](C)C(=O)NNC(=O)OCCSSC[C@H](NC(=O)[C@H](CC(=O)O)NC(=O)[C@H](CC(=O)O)NC(=O)Cc2ccc(CNC(=O)NCCCC[C@H](NC(=O)N[C@@H](CCC(=O)O)C(=O)O)C(=O)O)cc2)C(=O)O)cs1)C(C)C", "note": "(some centres unmarked) [EC1169]", "values": [
      {"measurement": "AUC", "setting": "[1]", "result": "Dose proportionate increases"},
      {"measurement": "Cmax", "setting": "[1]", "result": "Dose proportionate increases"},
      {"measurement": "DR Grade 3-4 toxicity or serious adverse events", "setting": "[2]; [4]", "result": "no"},
      {"measurement": "on-study deaths", "setting": "[2]; [4]", "result": "no"},
      {"measurement": "occurrences of dose limiting toxicity", "setting": "[2]; 21 mCRPC patients, both schedules, cycle 1", "result": "no"},
      {"measurement": "patients with drug-related (DR) adverse events (AE's)", "setting": "[2]; 21 patients evaluated for cycle 1 toxicity, both schedules, IV bolus", "result": "9 of 21"},
      {"measurement": "drug-related adverse events occurring in >1 patient", "setting": "[2]; Schedule #1 (TIW, Weeks 1 and 2 of 3-week cycle), 5 pts", "result": "No DRAE occurred in >1 Schedule #1 patient"},
      {"measurement": "drug-related adverse events reported in ≧2 patients", "setting": "[2]; Schedule #2 (once weekly, Weeks 1 and 2 of 3-week cycle), 16 pts", "result": "Vomiting and fatigue were the only DRAE's"},
      {"measurement": "tolerability", "setting": "[2]; mCRPC patients", "result": "well tolerated"},
      {"measurement": "patients with a 50% decrease in PSA", "setting": "[3]", "result": "No patient"},
      {"measurement": "patients with stable disease lasting more than 4 cycles", "setting": "[3]", "result": 3, "unit": "patients"}
    ]}
  ]
}
